System: IL-18
Test: IL-18 levels in small intestine and serum after oral rhLF or bLF (ELISA)
Format: in vivo, mice
Experimental: Recombinant human lactoferrin and bovine lactoferrin were orally administered to mice, and the production of IL-18 in the small intestine was measured.
Mice were treated for three days daily with 65 mg/kg/day of rhLF, 300 mg/kg/day of rhLF or 300 mg/kg/day of bLF. For a control, mice were only administered the pharmaceutical carrier. Twenty-four hours following administration of the LF or control for 3 days, animals were weighed and blood and serum were collected. Serum was used for cytokine ELISA assays.
Also, at these time points, animals were sacrificed and the small intestinal tissue was removed for further analysis. Small intestinal epithelium was homogenized using a lysis buffer consisting of PBS, 1% Nonidet P-40, 0.5% sodium deoxycholate, and 0.1% sodium dodecyl sulphate containing 10 μg/ml PhenylMetheylsulfonyl fluoride. Homogenate was centrifuged at 15,000 rpm for 10 minutes and the supernatant stored at −80 C till it was tested for IL-18 levels.

[1] = oral 300 mg/kg/day for three days
[2] = oral 300 mg/kg/day for three days, 24 h after last dose

B1: bLF: bovine lactoferrin, orally administered comparator (protein, UniProt P24627 20-708, looked up)
Lactotransferrin: APRKNVRWCTISQPEWFKCRRWQWRMKKLGAPSITCVRRAFALECIRAIAEKKADAVTLDGGMVFEAGRDPYKLRPVAAEIYGTKESPQTHYYAVAVVKKGSNFQLDQLQGRKSCHTGLGRSAGWIIPMGILRPYLSWTESLEPLQGAVAKFFSASCVPCIDRQAYPNLCQLCKGEGENQCACSSREPYFGYSGAFKCLQDGAGDVAFVKETTVFENLPEKADRDQYELLCLNNSRAPVDAFKECHLAQVPSHAVVARSVDGKEDLIWKLLSKAQEKFGKNKSRSFQLFGSPPGQRDLLFKDSALGFLRIPSKVDSALYLGSRYLTTLKNLRETAEEVKARYTRVVWCAVGPEEQKKCQQWSQQSGQNVTCATASTTDDCIVLVLKGEADALNLDGGYIYTAGKCGLVPVLAENRKSSKHSSLDCVLRPTEGYLAVAVVKKANEGLTWNSLKDKKSCHTAVDRTAGWNIPMGLIVNQTGSCAFDEFFSQSCAPGADPKSRLCALCAGDDQGLDKCVPNSKEKYYGYTGAFRCLAEDVGDVAFVKNDTVWENTNGESTADWAKNLNREDFRLLCLDGTRKPVTEAQSCHLAVAPNHAVVSRSDRAAHVKQVLLHQQALFGKNGKNCPDKFCLFKSETKNLLFNDNTECLAKLGGRPTYEEYLGTEYVTAIANLKKCSTSPLLEACAFLTR
With B1 the “serum levels of IL-18 (in words)” value (oral 300 mg/kg/day) was “did not increase”, the “IL-18 Intestinal Extract % Increase Over Control” value [1] was 373% and the “IL-18 Serum % Increase Over Control” value [1] was −5%. For the same molecule, the “IL-18 level, Intestinal Extract” value [2] was 4,515 pg, the “IL-18 level, Serum” value [2] was 134 pg and the “intestinal IL-18 levels (in words)” value (oral 300 mg/kg/day, compared with rhLF) was “lesser increase”.
